Experimental data as given in patent publication US20200270325A1 (Merck Sharp & Dohme, published 2020).
Numbered stars: 1 amine (or outer) side, 2 acyl side, 3 side chain; on linkers, the order of the positions; unused ones are H or OH. Square brackets hold non-standard residues; d marks the D form. Side chains are listed from the residue outwards. Ends that are not written are not given here. * marks the point of attachment. Phe(4-CH2NH2) = NCc1ccc(C[C@H](N)C(=O)O)cc1; C18 diacid = O=C(O)CCCCCCCCCCCCCCCCC(=O)*; γGlu = O=C(O)[C@H](CCC(=O)[*:2])N[*:1]; Met(O2) = CS(=O)(=O)CC[C@H](N)C(=O)O; AEEA = NCCOCCOCC(=O)O; Aib = CC(C)(N)C(=O)O

Columns and labels:
[1] = target: human Glucagon receptor (GCGR) (human, UniProt P47871 26-477); experiment: cell-based or functional assay
[2] = target: human GLP-1 receptor (GLP1R) (human, UniProt P43220 24-463); experiment: cell-based or functional assay

human Glucagon receptor (GCGR), sequence (P47871 26-477): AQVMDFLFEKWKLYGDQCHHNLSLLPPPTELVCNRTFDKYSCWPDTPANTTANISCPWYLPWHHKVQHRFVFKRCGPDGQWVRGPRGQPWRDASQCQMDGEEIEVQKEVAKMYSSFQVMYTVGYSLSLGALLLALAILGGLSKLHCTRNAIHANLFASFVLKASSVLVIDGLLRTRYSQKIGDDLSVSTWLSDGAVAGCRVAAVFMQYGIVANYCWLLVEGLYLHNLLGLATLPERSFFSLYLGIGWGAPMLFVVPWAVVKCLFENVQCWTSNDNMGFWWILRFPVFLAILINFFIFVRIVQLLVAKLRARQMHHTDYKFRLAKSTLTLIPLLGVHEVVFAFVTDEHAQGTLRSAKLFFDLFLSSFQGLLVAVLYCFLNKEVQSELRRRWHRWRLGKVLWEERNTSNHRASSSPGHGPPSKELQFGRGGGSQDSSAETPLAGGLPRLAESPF

Binder | GCGR EC50 human [1] | GLP1R EC50 human [2]
H[Aib]QGTFTSDYSKYLDAKAAK([AEEA-AEEA-γGlu-C18 diacid])DFVQWL[Met(O2)]DT-NH2 (N-terminus assumed; SMILES CC(C)C[C@H](NC(=O)[C@H](Cc1ccc(O)cc1)NC(=O)[C@H](CCCCN)NC(=O)[C@H](CO)NC(=O)[C@H](Cc1ccc(O)cc1)NC(=O)[C@H](CC(=O)O)NC(=O)[C@H](CO)NC(=O)[C@@H](NC(=O)[C@H](Cc1ccccc1)NC(=O)[C@@H](NC(=O)CNC(=O)[C@H](CCC(N)=O)NC(=O)C(C)(C)NC(=O)[C@@H](N)Cc1c[nH]cn1)[C@@H](C)O)[C@@H](C)O)C(=O)N[C@@H](CC(=O)O)C(=O)N[C@@H](C)C(=O)N[C@@H](CCCCN)C(=O)N[C@@H](C)C(=O)N[C@@H](C)C(=O)N[C@@H](CCCCNC(=O)COCCOCCNC(=O)COCCOCCNC(=O)CC[C@H](NC(=O)CCCCCCCCCCCCCCCCC(=O)O)C(=O)O)C(=O)N[C@@H](CC(=O)O)C(=O)N[C@@H](Cc1ccccc1)C(=O)N[C@H](C(=O)N[C@@H](CCC(N)=O)C(=O)N[C@@H](Cc1c[nH]c2ccccc12)C(=O)N[C@@H](CC(C)C)C(=O)N[C@@H](CCS(C)(=O)=O)C(=O)N[C@@H](CC(=O)O)C(=O)N[C@H](C(N)=O)[C@@H](C)O)C(C)C) [TP598] | 1.14 nM | 0.5 nM
H[Aib]QGTFTSDYSKLLDARAAK([AEEA-AEEA-γGlu-C18 diacid])DFVQWL[Met(O2)]DT-NH2 (N-terminus assumed; SMILES CC(C)C[C@H](NC(=O)[C@H](CC(C)C)NC(=O)[C@H](CCCCN)NC(=O)[C@H](CO)NC(=O)[C@H](Cc1ccc(O)cc1)NC(=O)[C@H](CC(=O)O)NC(=O)[C@H](CO)NC(=O)[C@@H](NC(=O)[C@H](Cc1ccccc1)NC(=O)[C@@H](NC(=O)CNC(=O)[C@H](CCC(N)=O)NC(=O)C(C)(C)NC(=O)[C@@H](N)Cc1c[nH]cn1)[C@@H](C)O)[C@@H](C)O)C(=O)N[C@@H](CC(=O)O)C(=O)N[C@@H](C)C(=O)N[C@@H](CCCNC(=N)N)C(=O)N[C@@H](C)C(=O)N[C@@H](C)C(=O)N[C@@H](CCCCNC(=O)COCCOCCNC(=O)COCCOCCNC(=O)CC[C@H](NC(=O)CCCCCCCCCCCCCCCCC(=O)O)C(=O)O)C(=O)N[C@@H](CC(=O)O)C(=O)N[C@@H](Cc1ccccc1)C(=O)N[C@H](C(=O)N[C@@H](CCC(N)=O)C(=O)N[C@@H](Cc1c[nH]c2ccccc12)C(=O)N[C@@H](CC(C)C)C(=O)N[C@@H](CCS(C)(=O)=O)C(=O)N[C@@H](CC(=O)O)C(=O)N[C@H](C(N)=O)[C@@H](C)O)C(C)C) [TP597] | 0.74 nM | 0.61 nM
H[Aib]QGTFTSDYSKYLDARAAQDFVQWL[Met(O2)][Phe(4-CH2NH2)]([AEEA-AEEA-γGlu-C18 diacid])T-NH2 (N-terminus assumed; SMILES CC(C)C[C@H](NC(=O)[C@H](Cc1ccc(O)cc1)NC(=O)[C@H](CCCCN)NC(=O)[C@H](CO)NC(=O)[C@H](Cc1ccc(O)cc1)NC(=O)[C@H](CC(=O)O)NC(=O)[C@H](CO)NC(=O)[C@@H](NC(=O)[C@H](Cc1ccccc1)NC(=O)[C@@H](NC(=O)CNC(=O)[C@H](CCC(N)=O)NC(=O)C(C)(C)NC(=O)[C@@H](N)Cc1c[nH]cn1)[C@@H](C)O)[C@@H](C)O)C(=O)N[C@@H](CC(=O)O)C(=O)N[C@@H](C)C(=O)N[C@@H](CCCNC(=N)N)C(=O)N[C@@H](C)C(=O)N[C@@H](C)C(=O)N[C@@H](CCC(N)=O)C(=O)N[C@@H](CC(=O)O)C(=O)N[C@@H](Cc1ccccc1)C(=O)N[C@H](C(=O)N[C@@H](CCC(N)=O)C(=O)N[C@@H](Cc1c[nH]c2ccccc12)C(=O)N[C@@H](CC(C)C)C(=O)N[C@@H](CCS(C)(=O)=O)C(=O)N[C@@H](Cc1ccc(CNC(=O)COCCOCCNC(=O)COCCOCCNC(=O)CC[C@H](NC(=O)CCCCCCCCCCCCCCCCC(=O)O)C(=O)O)cc1)C(=O)N[C@H](C(N)=O)[C@@H](C)O)C(C)C) [TP604] | 1.09 nM | 0.47 nM
